Results from patent publication US20200347133A1 (INHIBRX, published 2020).
Numbering of substitutions follows the chain as printed.

B1: 1E4 sdAb (1E4 VHH domain fused to human IgG1 xELL Fc region) (Fc fusion)
chain: QVQLQQSGGGSVQAGGSLRLSCVASGSGFSASLMSWHRQAPGSQRDLVASITRDGRANYVDSVKDRFTISRDNAKNTAYLQMDSLKPEDTAAYYCHAYSFDYPIRSYWGQGTQVTVDKTHTCPPCPAPGGPSVFLFPPKPKDTLMISRTPEVTCVVVDVSHEDPEVKFNWYVDGVEVHNAKTKPREEQYNSTYRVVSVLTVLHQDWLNGKEYKCKVSNKALPAPIEKTISKAKGQPREPQVYTLPPSRDELTKNQVSLTCLVKGFYPSDIAVEWESNGQPENNYKTTPPVLDSDGSFFLYSKLTVDKSRWQQGNVFSCSVMHEALHNHYTQKSLSLSPGK
notes: VHH-Fc; no linker between VHH and Fc is stated; also called 1E4-IgG1
B2: hzB07v7 sdAb (hzB07v7 VHH domain fused to human IgG1 xELL Fc region) (Fc fusion)
chain: EVQLVESGGGEVQPGGSLRLSCAASGRTISDYVVGWFRQAPGKERAFVAAISRYGTTYYAASVQGRFTISRDNPRNTVYLQVDSLRAEDTAVYYCAALQNDVRNNHSPTSYDYWGQGTLVTVDKTHTCPPCPAPGGPSVFLFPPKPKDTLMISRTPEVTCVVVDVSHEDPEVKFNWYVDGVEVHNAKTKPREEQYNSTYRVVSVLTVLHQDWLNGKEYKCKVSNKALPAPIEKTISKAKGQPREPQVYTLPPSRDELTKNQVSLTCLVKGFYPSDIAVEWESNGQPENNYKTTPPVLDSDGSFFLYSKLTVDKSRWQQGNVFSCSVMHEALHNHYTQKSLSLSPGK
notes: VHH-Fc; no linker stated; also called hzB07v7-IgG1
B3: 1G3 sdAb (1G3 VHH domain fused to human IgG1 xELL Fc region) (Fc fusion)
chain: EVQLQQSGGGEVQPGGSLRLSCEASGFTFSSYAMGWFRQAPGKGREWVAAITTSGDTTYYAESVKGRFTISRDNAKNTVYLQMSSLRAEDTAVYYCAAHRGGGVIDYWGQGTQVTVDKTHTCPPCPAPGGPSVFLFPPKPKDTLMISRTPEVTCVVVDVSHEDPEVKFNWYVDGVEVHNAKTKPREEQYNSTYRVVSVLTVLHQDWLNGKEYKCKVSNKALPAPIEKTISKAKGQPREPQVYTLPPSRDELTKNQVSLTCLVKGFYPSDIAVEWESNGQPENNYKTTPPVLDSDGSFFLYSKLTVDKSRWQQGNVFSCSVMHEALHNHYTQKSLSLSPGK
notes: VHH-Fc; no linker stated
B4: hz1G3v3 sdAb (hz1G3v3 VHH domain fused to human IgG1 xELL Fc region) (Fc fusion)
chain: B3 chain with Q5V, Q6E, E23A, Q113L
notes: VHH-Fc; no linker stated; also called hz1G3v3-IgG1
B5: F02 sdAb (F02 VHH domain fused to human IgG1 xELL Fc region) (Fc fusion)
chain: QVQLVQSGGGLVQAGGSLRLSCAASGSISSYNVVGWYRQLSGNERGGRTMVAQINAYGDTNYANAVVGRFTISRDDAKNTVYLHMSNLKPEDTGVYYCNGQRMLENYTYRDQSWGQGTQVTVDKTHTCPPCPAPGGPSVFLFPPKPKDTLMISRTPEVTCVVVDVSHEDPEVKFNWYVDGVEVHNAKTKPREEQYNSTYRVVSVLTVLHQDWLNGKEYKCKVSNKALPAPIEKTISKAKGQPREPQVYTLPPSRDELTKNQVSLTCLVKGFYPSDIAVEWESNGQPENNYKTTPPVLDSDGSFFLYSKLTVDKSRWQQGNVFSCSVMHEALHNHYTQKSLSLSPGK
notes: VHH-Fc; no linker stated; also called F02-IgG1
B6: hz1H9v2 sdAb (hz1H9v2 VHH domain fused to human IgG1 xELL Fc region) (Fc fusion)
chain: EVQLVESGGGEVQPGGSLRLSCAASGSIFSISIMGWYRQAPGKERELVASTTSSGTTNYVESVKGRFTISRDNAKNTLYLQMSSLRAEDTAVYYCHAYIATTTDRGYRGYWGQGTLVTVDKTHTCPPCPAPGGPSVFLFPPKPKDTLMISRTPEVTCVVVDVSHEDPEVKFNWYVDGVEVHNAKTKPREEQYNSTYRVVSVLTVLHQDWLNGKEYKCKVSNKALPAPIEKTISKAKGQPREPQVYTLPPSRDELTKNQVSLTCLVKGFYPSDIAVEWESNGQPENNYKTTPPVLDSDGSFFLYSKLTVDKSRWQQGNVFSCSVMHEALHNHYTQKSLSLSPGK
notes: VHH-Fc; no linker stated; also called hz1H9v2-IgG1
B7: G11 sdAb (G11 VHH domain fused to human IgG1 xELL Fc region) (Fc fusion)
chain: EVQLVQSGGGSVQVGGSLRLSCAASGSTLNIDHIGWYRQAPGKERELVGVISSGAGPNYADSVKGRFTISRDNAKNTVYLQMNSLKPEDTAVYNCNAWIDYGSGLPQNYWGQGTQVTVDKTHTCPPCPAPGGPSVFLFPPKPKDTLMISRTPEVTCVVVDVSHEDPEVKFNWYVDGVEVHNAKTKPREEQYNSTYRVVSVLTVLHQDWLNGKEYKCKVSNKALPAPIEKTISKAKGQPREPQVYTLPPSRDELTKNQVSLTCLVKGFYPSDIAVEWESNGQPENNYKTTPPVLDSDGSFFLYSKLTVDKSRWQQGNVFSCSVMHEALHNHYTQKSLSLSPGK
notes: VHH-Fc; no linker stated
B8: hzG11v2 sdAb (hzG11v2 VHH domain fused to human IgG1 xELL Fc region) (Fc fusion)
chain: B7 chain with Q6E, S11E, V14P, D61E, N83S, K86R, P87A, N94Y, Q115L
notes: VHH-Fc; no linker stated; also called hzG11v2-IgG1
B9: 1H9 sdAb (1H9 VHH domain fused to human IgG1 xELL Fc region) (Fc fusion)
chain: EVQLQQSGGAVVQPGGSLRLSCAASGSIFSISIMGWYRQAPGKERELVASTTSSGTTNYVDSVKGRFTASRDNAKNTVYLQMNSLKPDDTAIYHCHAYIATTTDRGYRGYWGQGTQVTVDKTHTCPPCPAPGGPSVFLFPPKPKDTLMISRTPEVTCVVVDVSHEDPEVKFNWYVDGVEVHNAKTKPREEQYNSTYRVVSVLTVLHQDWLNGKEYKCKVSNKALPAPIEKTISKAKGQPREPQVYTLPPSRDELTKNQVSLTCLVKGFYPSDIAVEWESNGQPENNYKTTPPVLDSDGSFFLYSKLTVDKSRWQQGNVFSCSVMHEALHNHYTQKSLSLSPGK
notes: VHH-Fc; no linker stated; also called 1H9-IgG1
B10: 1C7 sdAb (1C7 VHH domain fused to human IgG1 xELL Fc region) (Fc fusion)
chain: QVQLQQSGGGLVQAGGSLRLSCAASGRTFSGYIMGWFRQVPGKERELVARISGNNLSTEYGGSVKGRFTISRDSAKETMYLQMNSLKPEDTAIYYCAAEYDYSSGDFVYWGQGTQVTVDKTHTCPPCPAPGGPSVFLFPPKPKDTLMISRTPEVTCVVVDVSHEDPEVKFNWYVDGVEVHNAKTKPREEQYNSTYRVVSVLTVLHQDWLNGKEYKCKVSNKALPAPIEKTISKAKGQPREPQVYTLPPSRDELTKNQVSLTCLVKGFYPSDIAVEWESNGQPENNYKTTPPVLDSDGSFFLYSKLTVDKSRWQQGNVFSCSVMHEALHNHYTQKSLSLSPGK
notes: VHH-Fc; no linker stated; also called 1C7-IgG1
B11: hz1E4v2 sdAb (hz1E4v2 VHH domain fused to human IgG1 xELL Fc region) (Fc fusion)
chain: EVQLVESGGGEVQPGGSLRLSCAASGSGFSASLMSWHRQAPGKQRDLVASITRDGRANYVESVKGRFTISRDNAKNTLYLQMSSLRAEDTAVYYCHAYSFDYPIRSYWGQGTLVTVDKTHTCPPCPAPGGPSVFLFPPKPKDTLMISRTPEVTCVVVDVSHEDPEVKFNWYVDGVEVHNAKTKPREEQYNSTYRVVSVLTVLHQDWLNGKEYKCKVSNKALPAPIEKTISKAKGQPREPQVYTLPPSRDELTKNQVSLTCLVKGFYPSDIAVEWESNGQPENNYKTTPPVLDSDGSFFLYSKLTVDKSRWQQGNVFSCSVMHEALHNHYTQKSLSLSPGK
notes: VHH-Fc; no linker stated; also called hz1E4v2-IgG1

Legend:
[1] = target: T1, CD33M, full length human CD33 protein expressed on transfected cells (human, UniProt P20138 18-303); assay: flow cytometry on cells transfected with CD33M; apparent Kd, one-site fit
T1 construct: also called full length CD33
Method: (§1) Binding of sdAbs to human CD33 was assessed by flow cytometry. […] MOLM-13 cells were transiently transfected with a plasmid encoding a sequence comprising “CD33M” (SEQ ID NO: 112) or a plasmid encoding a sequence comprising a truncated version, “CD33m” (SEQ ID NO: 113). The sequence encoded by the CD33M plasmid includes the leader sequence, full extracellular domain, transmembrane domain, and cytoplasmic domain. The sequence encoded by the CD33m plasmid includes the leader sequence, the membrane proximal IgC2 domain, and the transmembrane domain. Untransfected HEK 293 cells were used as CD33-negative cells. Each cell type was plated at 30,000 cells/well in FACS buffer (PBS 1% BSA, 0.1% NaN₃ pH 7.4) on a 96-well round-bottom plate. The sdAbs were diluted in FACS buffer in a 3-fold, 11 point serial dilution. The sdAb dilutions were added to the plated cells, and assay plates were incubated for 30 minutes at 4° C. After washing twice in 150 μL of FACS buffer, cells in each well were resuspended in 100 μL of 1:2000 Alexa Fluor 647-conjugated Anti-Human IgG secondary diluted in FACS buffer and incubated at 4° C. for 30 minutes. The cells were washed twice more, then bound antibody was detected by flow cytometry.
(§2) Flow cytometric analysis was performed on an Intellicyte iQue Plus and fluorescence was plotted as median fluorescence intensity. The apparent affinity (Kd, nM) was determined using one site binding non-linear regression in PRISM graph software.

[2] = target: T1, CD33M, full length human CD33 protein …; assay: flow cytometry on MOLM-13 cells transfected with CD33 (CD33M per Table 3), anti-human IgG Alexa Fluor 647 secondary, median fluorescence
Method: as §1, §2

[3] = target: T1, CD33M, full length human CD33 protein …; assay: flow cytometry on cells labelled CD33M-HEK-293, anti-human IgG Alexa Fluor 647 secondary, median fluorescence
Method: Binding of sdAbs to human CD33 was assessed by flow cytometry. […] […] The sequence encoded by the CD33M plasmid includes the leader sequence, full extracellular domain, transmembrane domain, and cytoplasmic domain. The sequence encoded by the CD33m plasmid includes the leader sequence, the membrane proximal IgC2 domain, and the transmembrane domain. Untransfected HEK 293 cells were used as CD33-negative cells. Each cell type was plated at 30,000 cells/well in FACS buffer (PBS 1% BSA, 0.1% NaN₃ pH 7.4) on a 96-well round-bottom plate. The sdAbs were diluted in FACS buffer in a 3-fold, 11 point serial dilution. The sdAb dilutions were added to the plated cells, and assay plates were incubated for 30 minutes at 4° C. After washing twice in 150 μL of FACS buffer, cells in each well were resuspended in 100 μL of 1:2000 Alexa Fluor 647-conjugated Anti-Human IgG secondary diluted in FACS buffer and incubated at 4° C. for 30 minutes. The cells were washed twice more, then bound antibody was detected by flow cytometry.
as §2

[4] = target: T2, CD33m, truncated human CD33 protein expressed on transfected cells (human, UniProt P20138 140-259); assay: flow cytometry on cells transfected with truncated CD33m; apparent Kd, one-site fit
T2 construct: leader and transmembrane domain are not in it; also called truncated CD33
Method: as §1, §2

T1 sequence (P20138 18-303): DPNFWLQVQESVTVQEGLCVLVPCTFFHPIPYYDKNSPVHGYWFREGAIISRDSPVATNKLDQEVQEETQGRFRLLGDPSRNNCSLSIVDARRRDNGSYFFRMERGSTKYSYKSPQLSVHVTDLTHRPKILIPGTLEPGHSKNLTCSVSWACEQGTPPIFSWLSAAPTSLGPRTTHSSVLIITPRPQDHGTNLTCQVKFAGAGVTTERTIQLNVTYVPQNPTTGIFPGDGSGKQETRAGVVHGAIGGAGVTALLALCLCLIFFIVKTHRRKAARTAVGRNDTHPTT
T2 sequence (P20138 140-259 limits assumed): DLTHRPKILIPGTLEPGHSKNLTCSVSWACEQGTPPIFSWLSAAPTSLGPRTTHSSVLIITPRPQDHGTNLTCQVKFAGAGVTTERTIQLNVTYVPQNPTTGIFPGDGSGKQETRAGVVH

Row | Binder | Kd [1] [nM] | EC50 (read off the curve) [2] [nM] | EC50 (read off the curve) [3] [nM] | Kd [4] [nM]
1 | B1 | 0.05 | ~0.07 |  | 
2 | B2 | 0.75 |  | ~0.7 | 
3 | B3 | 0.49 |  |  | 
4 | B4 | 1.6 | ~2 |  | 
5 | B5 | 15.2 |  |  | 5.15
6 | B6 | 0.27 | ~0.3 |  | 
7 | B7 | 1.1 |  |  | 
8 | B8 | 2.67 |  | ~2 | 
9 | B9 | 0.14 | ~0.2 |  | 
10 | B10 | 6.64 |  |  | 
11 | B11 | 0.32 | ~0.3 |  | 
